Measured values: paper PMC8229081, “A Novel Assay for Phosphoserine Phosphatase Exploiting Serine Acetyltransferase as the Coupling Enzyme” (Life, 2021)

B1: human PSP (phosphoserine phosphatase) (Homo sapiens) (protein)
chain: MVSHSELRKLFYSADAVCFDVDSTVIREEGIDELAKICGVEDAVSEMTRRAMGGAVPFKAALTERLALIQPSREQVQRLIAEQPPHLTPGIRELVSRLQERNVQVFLISGGFRSIVEHVASKLNIPATNVFANRLKFYFNGEYAGFDETQPTAESGGKGKVIKLLKEKFHFKKIIMIGDGATDMEACPPADAFIGFGGNVIRQQVKDNAKWYITDFVELLGELEE
notes: dimer

Columns and labels:
[1] = molecular target: T1, human PSP (phosphoserine phosphatase) (Homo sapiens, UniProt P78330); conditions: 40 µM L-OPS, 15.7 nM PSP, 3 mM MgCl2, pH 7, 37 °C; product inhibition
T1 construct: gene PSPH
T1 sequence (P78330 1-225): B1 chain

purified protein = substrate: N[C@@H](COP(=O)(O)O)C(=O)O; test: purified protein; format: biochemical, Homo sapiens; conditions: 50 mM HEPES, 100 mM KCl, 3 mM MgCl2, pH 7, 37 °C, 170 µM acetyl-CoA, 0.5 mM DTNB, 430 mU HiSAT removing product L-serine

| Molecule | % inhibition at 50 mM [1] | Km (purified protein) | kcat (purified protein) | kcat/Km (purified protein) |
| --- | --- | --- | --- | --- |
| O=P(O)(O)O [phosphate] | 50% |  |  |  |
| B1 |  | 40.3 ± 2.8 µM | 44.8 ± 0.9 s⁻¹ | 1.11e+06 ± 100000 M⁻¹ s⁻¹ |
